For assay [1], the system named is Umbilical cord blood (UCB) CD34+ cells. Nature of the assay: Expansion of UCB CD34+ cells cultured 14 days with SCACs, GAS6 or inhibitors. The assay is classed as cell-based, human. The method, then: (§1) Umbilical cord blood (UCB) CD34+ cells were cultured in StemSpan™ SFEM (StemCell Technologies) in the presence of different SCACs for 14-days and net fold expansion of TNC, CD34+ cells CD34+CD45RA− cells, and EPCR^High was calculated based on respective population on day-0 (e.g. net TNC day 14/TNC day 0). Control STFL cultures consisted of the same complete media without small molecules. Unless indicated otherwise, all cultures were supplemented with Stem Cell Factor, Flt-3 and Thrombopoietin at 100 ng/ml. All cultures also contained 10 μg/mL low-density lipoprotein (LDL, Stem Ce, Technologies) and 1% penicillin-streptomycin (Gibco). […] The improvement in HSPC expansion provided by the SCACs is exemplified with X2A in FIGS. 2A-2D. […] Culture done with adult CD34+ mobilized peripheral blood stem cells (mPBSC, CAT #70060.2, Stem Cell Technologies) also contained IL-6 (100 ng/ml) as additional cytokine (FIG. 9).
To investigate the impact of AA2P and/or SCACs on expression of AXL and its activation level, HSPC were culture in STFL with or without AA2P or the indicated SCAC for 14 days (FIG. 4F). In some cultures, the AXL kinase inhibitor Bemcentinib or a neutralizing antibody was added to cultures at day 10, and the impact on HSPC expansion was investigated in indicated cultures at day 14. Proteins level were investigated by western blot analysis or intracellular flowcytometry analysis following common procedures with anti-AXL [Goat IgG anti-AXL (Cat #AF154) or anti-p-AXL (Cat #AF2228) or anti-GAS6 (rabbit IgG, Cat #67202S, Cell Signaling Tech.) and appropriate secondary antibodies, R&D systems). […] AXL is expressed by CD34+CD45RA− HSPCs cultured in both X2A and C6 culture (FIG. 5A). […] This support that, even in the absence of exogenous GAS6 , AA2P alone or in combination with other small molecule (i.e. stem cell agonist such as UM171, SR1 . . . ) is capable of driving enough increased endogenous expression of GAS6 and AXL to support the improved expansion of CD34+CD45RA− HSPCs through para-and/or autocrine activation of AXL on HSPCs.
(§2) In each case, GAS6 was added to the cultures from days 7 to 14.
Cell expansion measured after 14 days of culture in STFL culture (FIG. 7A) and in X2A cultures (FIG. 7B). Indeed, as shown therein, the rise in cell growth (TNC) and expansion of HSPC subsets (CD34+ cells, CD34+CD45RA−, EPCRHigh cells) induced by GAS6 can be accomplished by adding GAS6 in cultures at various time point, as early as day 0 and as late as day 10, preferably at day 7.

The next assay concerns NSG mice. Description: Engraftment in NSG mice of X2A-expanded cells with GAS6 or GAS6 neutralizing antibody. In kind it is in vivo. The method, then: Mice group were transplanted with the progeny of 750 expanded CD34+ cells after 14 days of culture. The groups were; […]-expanded cells, […]-expanded cells supplemented with GAS6 (10 ng/ml) or a GAS6 neutralizing antibody (GAS6 Ab) from day-10 to day-14. As shown therein, addition of GAS6 to CB HSPC expansion cultures improves the engraftment achieved from the ex vivo expanded HSPCs.

Assay [2] relates to CD34+ mobilized peripheral blood stem cells (mPBSC). Description: Expansion of adult mobilized peripheral blood stem cell (mPBSC) cultures. In kind it is cell-based, human. To be noted: GAS6 10 ng/ml, day 7 to 14; STFL and SCAC cultures. The method, then:
as §1, §2

Entries after “also recorded” stand apart in the source; their conditions may differ.

As for `Nc1nc(=O)n(-c2cccc(-c3ccccc3)c2)cc1Cl` [Bobcat339, reference compound], the “effect of TET inhibition on cell growth” value in assay [1] (30 μM, day-10 to day-14) is on record as “reduced cell growth”.

Regarding `Nc1nc(Nc2ccc3c(c2)CC[C@@H](N2CCCC2)CC3)nn1-c1cc2c(nn1)-c1ccccc1CCC2` [Bemcentinib, reference compound], in assay [1] (added at day 10, read at day 14, normalized to DMSO), the “effect of AXL kinase inhibition on ability of X2A and C6 to expand HSPCs” value was “reduction; also recorded: decreased”.

B1: GAS6: natural ligand of the AXL receptor, growth arrest-specific protein 6, added to cultures at 10 ng/mL (protein, UniProt Q14393 31-678, looked up)
Growth arrest-specific …: ALLPAREATQFLRPRQRRAFQVFEEAKQGHLERECVEELCSREEAREVFENDPETDYFYPRYLDCINKYGSPYTKNSGFATCVQNLPDQCTPNPCDRKGTQACQDLMGNFFCLCKAGWGGRLCDKDVNECSQENGGCLQICHNKPGSFHCSCHSGFELSSDGRTCQDIDECADSEACGEARCKNLPGSYSCLCDEGFAYSSQEKACRDVDECLQGRCEQVCVNSPGSYTCHCDGRGGLKLSQDMDTCEDILPCVPFSVAKSVKSLYLGRMFSGTPVIRLRFKRLQPTRLVAEFDFRTFDPEGILLFAGGHQDSTWIVLALRAGRLELQLRYNGVGRVTSSGPVINHGMWQTISVEELARNLVIKVNRDAVMKIAVAGDLFQPERGLYHLNLTVGGIPFHEKDLVQPINPRLDGCMRSWNWLNGEDTTIQETVKVNTRMQCFSVTERGSFYPGSGFAFYSLDYMRTPLDVGTESTWEVEVVAHIRPAADTGVLFALWAPDLRAVPLSVALVDYHSTKKLKKQLVVLAVEHTALALMEIKVCDGQEHVVTVSLRDGEATLEVDGTRGQSEVSAAQLQERLAVLERHLRSPVLTFAGGLPDVPVTSAPVTAFYRGCMTLEVNRRLLDLDEAAYKHSDITAHSCPPVEPAAA
On to B1, for which the “levels of human platelets and human % CD45+ leucocytes” value in the assay on NSG mice (X2A cultures + GAS6 10 ng/ml, 3-weeks and 16-weeks post-transplant) is recorded as “significantly superior”. Also, the “long-term human BM engraftment (% CD45+)” value in the assay with NSG mice (X2A cultures, 18-weeks after transplantation) is on record as “improved”. The “distribution of human lineages downstream HSC” value in the assay with NSG mice (X2A+ GAS6 group, BM) was “normal distribution”. In addition, the “proportion of CD34+ HSPC” value with NSG mice (X2A+ GAS6 mice, BM) is recorded as “significantly superior”. In the assay on NSG mice (X2A+ GAS6 primary transplants), the “human CFU” value is “significantly superior” and the “net number of human CD34+ BM cells” value was “significantly superior”. The “serial engraftment activity in secondary transplants” value with NSG mice (primary X2A+ GAS6 grafts vs X2A grafts, 12-weeks) is given as “superior serial engraftment activity”. For the same molecule, in assay [2], the “expansion of TNC and HSPC subsets in mPBSC cultures with GAS6” value is “further increased”. Further, in assay [1] (FIGS. 5D-5F), the “HSPC expansion with GAS6 in X2A, X2B, STFL or SM6 culture” value was “improved HSPC expansion”. In assay [1] (GAS6 10 ng/mL, days 7 to 14), the “expansion of TNC and HSPC subsets, valproic acid (VPA)-containing cultures” value is given as “improved”; the “expansion of the CB HSPC population, GAS6 with single stem cell agonists or agonist cocktails” value is “strongly increases”. In assay [1] (GAS6 10 ng/ml, days 7 to 14), the “expansion of HSPC subsets, control STFL cultures” value is recorded as “improved”; the “expansion of TNC and HSPC subsets, AA2P-containing cultures” value is listed as “improved”; the “expansion of TNC and HSPC subsets, C6-containing cultures” value is “improved”; the “expansion of TNC and HSPC subsets, SM6-containing cultures” value was “improved”. Also, in assay [1] (GAS6 10 ng/ml, days 7 to 14), the “expansion of TNC and HSPC subsets, SR1-containing cultures” value is listed as “improved”; the “expansion of TNC and HSPC subsets, UM171-containing cultures” value is listed as “improved”; the “expansion of TNC and HSPC subsets, X2A-containing cultures” value is “improved”. Further, the “expansion of CB TNC and HSPC subsets, GAS6 added at different time point” value in assay [1] (added day 0, 4, 7 or 10, STFL with or without X2A, day 14) was “superior expansion”. The “HSPC expansion, exogenous GAS6 added to SCAC and C6 cultures” value in assay [1] (compared to SCACs and C6 alone, 10 ng/mL) is “further improved HSPC expansion”.
